Measured values taken from paper PMC1075921 (Nucleic Acids Research, 2005).
Numbering of substitutions follows the chain as printed. In names and notes the source's numbering stands.

B1: hRPA70_(1–168) Y118A mutant (domain or fragment)
chain: MVGQLSEGAIAAIMQKGDTNIKPILQVINIRPITTGNSPPRYRLLMSDGLNTLSSFMLATQLNPLVEEEQLSSNCVCQIHRFIVNTLKDGRRVVILMELEVLKSAEAVGVKIGNPVPANEGLGQPQVAPPAPAASPAASSRPQPQNGSSGMGSTVSKAYGASKTFGKA
B2: hRPA70_(1–168) R41E mutant (domain or fragment)
chain: B1 chain with R41E, A118Y

Target: transactivation domain of human p53 (residues 1–73) (human, UniProt P04637 1-73, R72)
Assay: NMR titration

Row | Binder | mean intensity ratio (free/with partner) of p53TAD residues 42–56 | intensity ratio (free/with partner) of all p53TAD residues except I50-F54 | mean intensity ratio (free/with partner) of p53TAD residues I50-F54
1 | B1 | 35 ± 34 | – | –
2 | B2 | – | < 2 | 3.3 ± 1.7
